Assay results published in publication PMC9482650, “Quantitative fragmentomics allow affinity mapping of interactomes” (Nature Communications, 2022).

Assays:
Assay in all cases: holdup assay
Parameters in all cases: key: below the threshold = too weak to quantify, mostly under pKd 3.1 to 4
LIN7B, Q9HAP6 = target: T1, LIN7B, Q9HAP6
T1 sequence (Q9HAP6 88-185, limits assumed, looked up): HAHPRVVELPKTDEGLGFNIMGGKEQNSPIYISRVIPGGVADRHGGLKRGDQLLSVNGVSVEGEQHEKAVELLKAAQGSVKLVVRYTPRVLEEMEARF

NHERF4_4, Q86UT5 = target: NHERF4_4, Q86UT5
GRID2IP_1, A4D2P6 = target: GRID2IP_1, A4D2P6
DLG1_3, Q12959 = target: DLG1_3, Q12959
RAPGEF6, Q8TEU7 = target: T2, RAPGEF6, Q8TEU7
T2 sequence (Q8TEU7 525-625, limits assumed, looked up): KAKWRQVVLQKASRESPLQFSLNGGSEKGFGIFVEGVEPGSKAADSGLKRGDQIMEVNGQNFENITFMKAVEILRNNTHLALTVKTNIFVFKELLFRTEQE

TJP1_3, Q07157 = target: TJP1_3, Q07157
DLG3_1, Q92796 = target: T3, DLG3_1, Q92796
T3 sequence (Q92796 125-227, limits assumed, looked up): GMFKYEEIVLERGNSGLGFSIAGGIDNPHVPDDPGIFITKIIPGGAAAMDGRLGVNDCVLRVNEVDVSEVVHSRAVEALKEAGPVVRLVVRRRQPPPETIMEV

AHNAK1, Q09666 = target: AHNAK1, Q09666
SNX27, Q96L92 = target: SNX27, Q96L92
Inadl_3, Q8NI35 = target: Inadl_3, Q8NI35
SIPA1L2, Q9P2F8 = target: T4, SIPA1L2, Q9P2F8
T4 sequence (Q9P2F8 945-1036, limits assumed, looked up): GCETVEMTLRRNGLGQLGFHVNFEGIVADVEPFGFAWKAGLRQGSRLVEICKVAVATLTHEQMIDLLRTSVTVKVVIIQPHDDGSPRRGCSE

LDB3, O75112 = target: LDB3, O75112
SCRIB_1, Q14160 = target: SCRIB_1, Q14160
MPDZ_5, O75970 = target: T5, MPDZ_5, O75970
T5 sequence (O75970 695-796, limits assumed, looked up): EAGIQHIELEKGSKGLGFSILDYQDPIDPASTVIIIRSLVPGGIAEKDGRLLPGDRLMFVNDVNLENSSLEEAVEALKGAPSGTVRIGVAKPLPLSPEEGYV

Inadl_5, Q8NI35 = target: Inadl_5, Q8NI35
MPDZ_10, O75970 = target: T6, MPDZ_10, O75970
T6 sequence (O75970 1624-1722, limits assumed, looked up): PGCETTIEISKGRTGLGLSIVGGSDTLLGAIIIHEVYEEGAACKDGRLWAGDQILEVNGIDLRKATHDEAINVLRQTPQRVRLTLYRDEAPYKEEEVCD

PDZRN3_1, Q9UPQ7 = target: T7, PDZRN3_1, Q9UPQ7
T7 sequence (Q9UPQ7 244-349, limits assumed, looked up): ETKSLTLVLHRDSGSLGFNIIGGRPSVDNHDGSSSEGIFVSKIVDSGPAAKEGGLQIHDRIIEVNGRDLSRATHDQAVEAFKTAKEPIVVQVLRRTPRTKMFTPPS

DLG3_2, Q92796 = target: T8, DLG3_2, Q92796
T8 sequence (Q92796 221-321, limits assumed, looked up): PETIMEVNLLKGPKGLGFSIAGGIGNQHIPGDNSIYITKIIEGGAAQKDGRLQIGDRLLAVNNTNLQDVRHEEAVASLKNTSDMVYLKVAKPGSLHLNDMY

NHERF3_3, Q5T2W1 = target: T9, NHERF3_3, Q5T2W1
T9 sequence (Q5T2W1 238-333, limits assumed, looked up): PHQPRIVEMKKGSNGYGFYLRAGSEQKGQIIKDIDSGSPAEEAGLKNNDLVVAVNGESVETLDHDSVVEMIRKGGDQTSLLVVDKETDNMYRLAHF

MPDZ_12, O75970 = target: T10, MPDZ_12, O75970
T10 sequence (O75970 1857-1958, limits assumed, looked up): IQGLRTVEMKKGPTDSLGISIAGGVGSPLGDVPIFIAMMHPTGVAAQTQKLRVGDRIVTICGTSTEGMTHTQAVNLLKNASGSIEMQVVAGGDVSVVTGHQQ

SNTG2, Q9NY99 = target: T11, SNTG2, Q9NY99
T11 sequence (Q9NY99 68-166, limits assumed, looked up): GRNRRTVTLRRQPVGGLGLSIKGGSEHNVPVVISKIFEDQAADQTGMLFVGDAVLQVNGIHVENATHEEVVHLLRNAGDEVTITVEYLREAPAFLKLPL

FRMPD2_3, Q68DX3 = target: FRMPD2_3, Q68DX3
NHERF4_2, Q86UT5 = target: NHERF4_2, Q86UT5
DFNB31_1, Q9P202 = target: T12, DFNB31_1, Q9P202
T12 sequence (Q9P202 135-233, limits assumed, looked up): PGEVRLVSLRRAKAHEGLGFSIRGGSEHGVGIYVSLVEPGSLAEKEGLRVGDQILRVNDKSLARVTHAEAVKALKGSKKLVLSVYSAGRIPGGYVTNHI

[1] = modified: phospho on T at position -2 from the C-terminal residue
[2] = plain residues with an end cap or a label only (N-terminal biotin on a linker: ado-ado)

Sequence of FRMPD2_3, Q68DX3 (Q68DX3 1073-1166): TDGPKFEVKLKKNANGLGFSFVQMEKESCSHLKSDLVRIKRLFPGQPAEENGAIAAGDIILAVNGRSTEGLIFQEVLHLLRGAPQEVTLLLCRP
Sequence of NHERF4_2, Q86UT5 (Q86UT5 220-308): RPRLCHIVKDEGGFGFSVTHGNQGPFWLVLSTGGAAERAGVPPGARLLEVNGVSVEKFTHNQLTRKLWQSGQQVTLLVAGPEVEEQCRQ
Sequence of LDB3, O75112 (O75112 1-94): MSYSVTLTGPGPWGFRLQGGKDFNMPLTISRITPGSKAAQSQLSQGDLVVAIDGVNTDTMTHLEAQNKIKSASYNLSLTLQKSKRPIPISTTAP
Sequence of AHNAK1, Q09666 (Q09666 4-100): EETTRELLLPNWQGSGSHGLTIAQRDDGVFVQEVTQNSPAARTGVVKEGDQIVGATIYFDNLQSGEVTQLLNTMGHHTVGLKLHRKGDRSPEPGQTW
Sequence of SCRIB_1, Q14160 (Q14160 718-814): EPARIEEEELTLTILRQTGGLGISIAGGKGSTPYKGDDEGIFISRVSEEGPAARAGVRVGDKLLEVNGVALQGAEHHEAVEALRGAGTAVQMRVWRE
Sequence of Inadl_5, Q8NI35 (Q8NI35 673-780): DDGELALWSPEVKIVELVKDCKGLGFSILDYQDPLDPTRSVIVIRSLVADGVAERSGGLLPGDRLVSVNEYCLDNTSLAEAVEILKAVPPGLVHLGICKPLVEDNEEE
Sequence of GRID2IP_1, A4D2P6 (A4D2P6 1-87): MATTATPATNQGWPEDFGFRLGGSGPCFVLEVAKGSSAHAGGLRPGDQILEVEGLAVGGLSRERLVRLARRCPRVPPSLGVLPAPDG
Sequence of TJP1_3, Q07157 (Q07157 416-512): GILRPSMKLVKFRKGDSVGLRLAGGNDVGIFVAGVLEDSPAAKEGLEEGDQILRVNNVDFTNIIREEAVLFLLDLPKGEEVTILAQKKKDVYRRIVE
Sequence of Inadl_3, Q8NI35 (Q8NI35 359-469): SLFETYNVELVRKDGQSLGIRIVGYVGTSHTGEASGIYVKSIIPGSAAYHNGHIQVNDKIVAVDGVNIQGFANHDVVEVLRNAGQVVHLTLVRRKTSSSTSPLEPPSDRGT
Sequence of NHERF4_4, Q86UT5 (Q86UT5 464-550): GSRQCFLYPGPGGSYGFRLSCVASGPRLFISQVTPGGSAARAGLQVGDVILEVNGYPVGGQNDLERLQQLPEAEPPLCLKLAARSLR
Sequence of DLG1_3, Q12959 (Q12959 457-571): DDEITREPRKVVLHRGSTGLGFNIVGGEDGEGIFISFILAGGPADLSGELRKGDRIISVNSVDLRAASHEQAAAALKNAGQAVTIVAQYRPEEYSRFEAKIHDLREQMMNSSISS

Binder: SSRTRRETQL [HPV16-E6_-2P, P03126]
- pKd (LIN7B, Q9HAP6; [1]): below the threshold
- pKd (NHERF4_4, Q86UT5; [1]): below the threshold
- pKd (GRID2IP_1, A4D2P6; [1]): below the threshold
- pKd (DLG1_3, Q12959; [1]): below the threshold
- pKd (RAPGEF6, Q8TEU7; [1]): below the threshold
- pKd (TJP1_3, Q07157; [1]): below the threshold
- pKd (DLG3_1, Q92796; [1]): below the threshold
- pKd (AHNAK1, Q09666; [1]): below the threshold
- pKd (SNX27, Q96L92; [1]): below the threshold
- pKd (Inadl_3, Q8NI35; [1]): below the threshold
- pKd (SIPA1L2, Q9P2F8; [1]): below the threshold
- pKd (LDB3, O75112; [1]): below the threshold
- pKd (SCRIB_1, Q14160; [1]): below the threshold
- pKd (MPDZ_5, O75970; [1]): below the threshold
- pKd (Inadl_5, Q8NI35; [1]): below the threshold
- pKd (MPDZ_10, O75970; [1]): below the threshold
- pKd (PDZRN3_1, Q9UPQ7; [1]): below the threshold
- pKd (DLG3_2, Q92796; [1]): below the threshold
- pKd (NHERF3_3, Q5T2W1; [1]): below the threshold
- pKd (MPDZ_12, O75970; [1]): below the threshold
- pKd (SNTG2, Q9NY99; [1]): below the threshold
- pKd (FRMPD2_3, Q68DX3; [1]): below the threshold
- pKd (NHERF4_2, Q86UT5; [1]): below the threshold
- pKd (DFNB31_1, Q9P202; [1]): below the threshold

Binder: EDGESWEYQI [TRPV6, Q9H1D0]
- pKd (LIN7B, Q9HAP6; [2]): 3.59
- pKd (NHERF4_4, Q86UT5; [2]): 3.94
- pKd (GRID2IP_1, A4D2P6; [2]): below the threshold
- pKd (DLG1_3, Q12959; [2]): below the threshold
- pKd (RAPGEF6, Q8TEU7; [2]): below the threshold
- pKd (TJP1_3, Q07157; [2]): below the threshold
- pKd (DLG3_1, Q92796; [2]): below the threshold
- pKd (AHNAK1, Q09666; [2]): below the threshold
- pKd (SNX27, Q96L92; [2]): below the threshold
- pKd (Inadl_3, Q8NI35; [2]): 5.33
- pKd (SIPA1L2, Q9P2F8; [2]): below the threshold
- pKd (LDB3, O75112; [2]): below the threshold
- pKd (SCRIB_1, Q14160; [2]): below the threshold
- pKd (MPDZ_5, O75970; [2]): below the threshold
- pKd (Inadl_5, Q8NI35; [2]): below the threshold
- pKd (MPDZ_10, O75970; [2]): below the threshold
- pKd (PDZRN3_1, Q9UPQ7; [2]): below the threshold
- pKd (DLG3_2, Q92796; [2]): 4.02
- pKd (NHERF3_3, Q5T2W1; [2]): below the threshold
- pKd (MPDZ_12, O75970; [2]): below the threshold
- pKd (SNTG2, Q9NY99; [2]): below the threshold
- pKd (FRMPD2_3, Q68DX3; [2]): below the threshold
- pKd (NHERF4_2, Q86UT5; [2]): below the threshold
- pKd (DFNB31_1, Q9P202; [2]): below the threshold

Binder: RQKEVRESKC [SCN8A, Q9UQD0]
- pKd (LIN7B, Q9HAP6; [2]): 3.78
- pKd (NHERF4_4, Q86UT5; [2]): below the threshold
- pKd (GRID2IP_1, A4D2P6; [2]): below the threshold
- pKd (DLG1_3, Q12959; [2]): 4.13
- pKd (RAPGEF6, Q8TEU7; [2]): below the threshold
- pKd (TJP1_3, Q07157; [2]): below the threshold
- pKd (DLG3_1, Q92796; [2]): below the threshold
- pKd (AHNAK1, Q09666; [2]): below the threshold
- pKd (SNX27, Q96L92; [2]): 5.19
- pKd (Inadl_3, Q8NI35; [2]): below the threshold
- pKd (SIPA1L2, Q9P2F8; [2]): below the threshold
- pKd (LDB3, O75112; [2]): below the threshold
- pKd (SCRIB_1, Q14160; [2]): 4.53
- pKd (MPDZ_5, O75970; [2]): below the threshold
- pKd (Inadl_5, Q8NI35; [2]): below the threshold
- pKd (MPDZ_10, O75970; [2]): 3.8
- pKd (PDZRN3_1, Q9UPQ7; [2]): 4.02
- pKd (DLG3_2, Q92796; [2]): 4.1
- pKd (NHERF3_3, Q5T2W1; [2]): below the threshold
- pKd (MPDZ_12, O75970; [2]): below the threshold
- pKd (SNTG2, Q9NY99; [2]): 4.58
- pKd (FRMPD2_3, Q68DX3; [2]): below the threshold
- pKd (NHERF4_2, Q86UT5; [2]): below the threshold
- pKd (DFNB31_1, Q9P202; [2]): 4.1
